Results taken from article PMC12407318.

Assay: sheep red blood cell hemolysis, OD542
Conditions: glycan lost; control: WT Anxa2

B1: Annexin A2 (Anxa2): S22A (protein)
parent chain: MSTVHEILCKLSLEGDHSTPPSAYGSVKPYTNFDAERDALNIETAVKTKGVDEVTIVNILTNRSNVQRQDIAFAYQRRTKKELPSALKSALSGHLETVILGLLKTPAQYDASELKASMKGLGTDEDSLIEIICSRTNQELQEINRVYKEMYKTDLEKDIISDTSGDFRKLMVALAKGRRAEDGSVIDYELIDQDARELYDAGVKRKGTDVPKWISIMTERSVCHLQKVFERYKSYSPYDMLESIKKEVKGDLENAFLNLVQCIQNKPLYFADRLYDSMKGKGTRDKVLIRIMVSRSEVDMLKIRSEFKRKYGKSLYYYIQQDTKGDYQKALLYLCGGDD
- other: MBL-MASP complement activation: decreases

B2: Annexin A2 (Anxa2): S26A (protein)
parent chain: MSTVHEILCKLSLEGDHSTPPSAYGSVKPYTNFDAERDALNIETAVKTKGVDEVTIVNILTNRSNVQRQDIAFAYQRRTKKELPSALKSALSGHLETVILGLLKTPAQYDASELKASMKGLGTDEDSLIEIICSRTNQELQEINRVYKEMYKTDLEKDIISDTSGDFRKLMVALAKGRRAEDGSVIDYELIDQDARELYDAGVKRKGTDVPKWISIMTERSVCHLQKVFERYKSYSPYDMLESIKKEVKGDLENAFLNLVQCIQNKPLYFADRLYDSMKGKGTRDKVLIRIMVSRSEVDMLKIRSEFKRKYGKSLYYYIQQDTKGDYQKALLYLCGGDD
- other: MBL-MASP complement activation: decreases
